Results: publication PMC5148612, “Mechanism of cargo-directed Atg8 conjugation during selective autophagy” (eLife, 2016)
Where a chain is given by its changes, count along the chain named. In names and notes the source's numbering stands.

T1: Atg19 (S. cerevisiae, UniProt P35193 1-415)
T1 construct: Atg19, S. cerevisiae; printed without a tag; also called Atg19 wild type
T1 sequence (looked up): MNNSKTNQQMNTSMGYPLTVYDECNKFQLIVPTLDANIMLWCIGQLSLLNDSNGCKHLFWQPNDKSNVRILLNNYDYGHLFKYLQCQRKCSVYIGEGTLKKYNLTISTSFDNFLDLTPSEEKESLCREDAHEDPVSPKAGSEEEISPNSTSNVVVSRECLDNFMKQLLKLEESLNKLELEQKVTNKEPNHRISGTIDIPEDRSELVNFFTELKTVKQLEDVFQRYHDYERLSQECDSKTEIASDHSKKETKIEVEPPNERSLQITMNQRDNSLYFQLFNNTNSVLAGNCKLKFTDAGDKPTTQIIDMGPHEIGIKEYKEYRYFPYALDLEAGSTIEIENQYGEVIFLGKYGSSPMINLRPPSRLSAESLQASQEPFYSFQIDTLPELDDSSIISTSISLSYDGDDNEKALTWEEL

T2: Atg12~Atg5 conjugate (S. cerevisiae, UniProt P38316 1-186; Q12380 1-294, conjugated to Atg5 (Atg12~Atg5 protein conjugate) | conjugated to Atg12)
T2 construct: Atg12, S. cerevisiae; Atg5, S. cerevisiae; the two chains are covalently joined; source: E. coli Rosetta pLysS, co-expression of 6xHis-Atg5, Atg12, Atg7 and Atg10, purified
T2 sequence (looked up) 1: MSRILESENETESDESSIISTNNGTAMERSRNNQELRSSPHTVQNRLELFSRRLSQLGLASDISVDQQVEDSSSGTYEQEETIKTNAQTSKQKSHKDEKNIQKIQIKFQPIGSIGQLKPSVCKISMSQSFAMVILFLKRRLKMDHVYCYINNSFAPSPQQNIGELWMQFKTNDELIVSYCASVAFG
T2 sequence (looked up) 2: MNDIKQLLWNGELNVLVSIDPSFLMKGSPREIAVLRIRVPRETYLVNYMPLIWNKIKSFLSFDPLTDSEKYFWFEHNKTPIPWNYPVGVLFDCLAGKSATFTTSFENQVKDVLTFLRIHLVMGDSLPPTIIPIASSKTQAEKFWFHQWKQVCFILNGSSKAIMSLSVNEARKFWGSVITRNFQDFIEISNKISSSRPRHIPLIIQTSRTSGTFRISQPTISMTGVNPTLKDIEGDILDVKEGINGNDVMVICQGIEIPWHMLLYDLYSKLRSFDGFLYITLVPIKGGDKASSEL

T3: Atg5 (S. cerevisiae, UniProt Q12380 1-294)
T3 construct: Atg5, S. cerevisiae; in the co-purification with Atg16 (1–46) the GST was still on the protein while it was held on glutathione beads; also called GST-Atg5; source: E. coli Rosetta pLysS, on glutathione beads, cleaved off with thrombin; not shown: GST, N-terminal, cleaved
T3 sequence (looked up): T2 sequence (looked up) 2

T4: Atg12~Atg5-Atg16 complex (S. cerevisiae, UniProt P38316 1-186; Q12380 1-294; Q03818 1-150, conjugated to Atg5 (Atg12~Atg5 protein conjugate) | conjugated to Atg12)
T4 construct: Atg12, S. cerevisiae; Atg5, S. cerevisiae; Atg16, S. cerevisiae; conjugate made by co-expression with Atg7 and Atg10 (SMC131); details in Romanov et al., 2012; also called E3-like complex; source: E. coli Rosetta pLysS; Atg12~Atg5 conjugate mixed 1:1 with purified Atg16, purified by size exclusion chromatography; not shown: GST, N-terminal, cleaved; copies: + +
T4 sequence (looked up) 1: T2 sequence (looked up) 1
T4 sequence (looked up) 2: T2 sequence (looked up) 2
T4 sequence (looked up) 3: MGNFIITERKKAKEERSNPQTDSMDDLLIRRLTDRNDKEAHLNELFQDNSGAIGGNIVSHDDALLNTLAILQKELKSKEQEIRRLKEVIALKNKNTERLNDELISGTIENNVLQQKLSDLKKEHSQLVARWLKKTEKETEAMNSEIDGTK

T5: Atg5-Atg16 complex (S. cerevisiae, UniProt Q12380 1-294; Q03818 1-150)
T5 construct: Atg5, S. cerevisiae; Atg16, S. cerevisiae; source: E. coli Rosetta pLysS; Atg5 cleaved from GST mixed 1:1 with purified Atg16, purified by size exclusion chromatography; not shown: GST, N-terminal, cleaved
T5 sequence (looked up) 1: T2 sequence (looked up) 2
T5 sequence (looked up) 2: T4 sequence (looked up) 3

T6: GFP-Atg8∆R117 (S. cerevisiae, UniProt P38182 1-116)
T6 construct: Atg8, S. cerevisiae, without its last residue R117; also called meGFP-Atg8∆R117; 6xHis-meGFP-Atg8∆R117; source: E. coli Rosetta pLysS, purified; not shown: meGFP, N-terminal, kept
T6 sequence (looked up): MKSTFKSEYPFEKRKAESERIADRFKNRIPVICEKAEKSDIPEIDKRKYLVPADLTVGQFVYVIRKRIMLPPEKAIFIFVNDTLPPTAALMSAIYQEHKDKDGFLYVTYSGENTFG

T7: Atg5-mCherry-Atg16 (1–46) complex (S. cerevisiae, UniProt Q12380 1-294; Q03818 1-46)
T7 construct: Atg5, S. cerevisiae; Atg16, S. cerevisiae, first 46 amino acids; a TEV site follows the His tag of Atg5; no cleavage is described; source: E. coli Rosetta pLysS, co-expressed, purified (Ni-NTA, Superdex 200); not shown: mCherry, C-terminal, kept
T7 sequence (looked up) 1: T2 sequence (looked up) 2
T7 sequence (looked up) 2: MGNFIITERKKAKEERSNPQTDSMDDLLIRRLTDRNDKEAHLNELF

T8: GST-Atg19 (S. cerevisiae, UniProt P35193 1-415)
T8 construct: Atg19, S. cerevisiae cargo receptor; also called full length GST-Atg19; Atg19 full length; source: E. coli Rosetta pLysS, purified; not shown: GST, N-terminal, kept
T8 sequence (looked up): T1 sequence (looked up)

B1: Atg5-Atg16 (1–46) for analytical size exclusion chromatography (complex, S. cerevisiae)
chain 1: T2 sequence (looked up) 2
chain 2: T7 sequence (looked up) 2
notes: Atg5, S. cerevisiae; Atg16, S. cerevisiae, first 46 amino acids; source: E. coli Rosetta pLySS, co-expressed, purified (glutathione beads, thrombin, Superdex 200); not shown: GST, N-terminal, cleaved
B2: Atg16 (natural protein, S. cerevisiae, UniProt Q03818 1-150, looked up)
chain: T4 sequence (looked up) 3
notes: Atg16, S. cerevisiae; also called purified Atg16; GST-Atg16; source: E. coli Rosetta pLysS, purified
B3: Atg16-meGFP (natural protein, S. cerevisiae, UniProt Q03818 1-150, looked up)
chain: T4 sequence (looked up) 3
notes: Atg16, S. cerevisiae; source: E. coli Rosetta pLysS, purified; not shown: meGFP, C-terminal, kept
B4: GST-Atg34 (natural protein, S. cerevisiae, UniProt Q12292 1-412, looked up)
chain: MKIAVETTLFDFFVIDQFKKSTFSAPNTKVDTIKGCINKFIEQFNVYDEQHIFWQPPGKSNVRLLSNANDFGQLGNFLHKKIKCNIFIGEEALRKYDLNICGPYDKFVENSDPSVKKVVNRDDVMLSRKCLNIISEQLSILEKSISKAQNQVLQSSEVEGKKCIILPEDKPELIKFFSKFETSVQLQEVYEGYKVYEKLLQKFGGQKKRMESFLNENTPMSGAEAIKQINISEELKEKGERLTTPNDPLLHVEVSNEDNSLHFILYNKTNIIIPGNCTFEFSSQISEVFSIKMGPHEIGIKGQKELWFFPSLPTPLSNYTMKVVNQDGETILVGKCADSNEITLKSPLASFSTGSFQTGSFHTLQDPTNVFRADALSSPDESSIMSTPFLGETDEVYNSGSTLSRPFTWEEI
notes: Atg34, S. cerevisiae cargo receptor; also called α-mannosidase (Ams1) receptor; source: E. coli Rosetta pLysS, purified; not shown: GST, N-terminal, kept
B5: GST-Atg19(365–415) (domain or fragment, S. cerevisiae, UniProt P35193 365-415, looked up)
chain: SAESLQASQEPFYSFQIDTLPELDDSSIISTSISLSYDGDDNEKALTWEEL
notes: Atg19, S. cerevisiae, C-terminal domain; also called Atg19 C-terminal domain; Atg19 CTD (365-415); source: E. coli Rosetta pLysS, purified; not shown: GST, N-terminal, kept
B6: Atg5-Atg16 (1–46) (complex, S. cerevisiae)
chain 1: T2 sequence (looked up) 2
chain 2: T7 sequence (looked up) 2
notes: Atg5, S. cerevisiae; Atg16, S. cerevisiae, first 46 amino acids; the His tag of Atg5 is followed by a TEV site; also called Atg5 stabilized with the N-terminal helix of Atg16; Atg5-Atg16 (1–46) wild type; source: E. coli, co-expressed and purified in complex
B7: Atg5(R208E)-Atg16 (1–46) (complex, S. cerevisiae)
chain 1: T2 sequence (looked up) 2 with R208E
chain 2: T7 sequence (looked up) 2
notes: Atg5, S. cerevisiae; Atg16, S. cerevisiae, first 46 amino acids; source: E. coli, co-expressed and purified in complex
B8: GST-Atg19(365–407) (domain or fragment, S. cerevisiae, UniProt P35193 365-407, looked up)
chain: SAESLQASQEPFYSFQIDTLPELDDSSIISTSISLSYDGDDNE
notes: Atg19, S. cerevisiae; also called Atg19 C-terminal domain with the canonical AIM motif deleted; source: E. coli Rosetta pLysS, purified; not shown: GST, N-terminal, kept
B9: Atg5(K137E)-Atg16 (1–46) (complex, S. cerevisiae)
chain 1: T2 sequence (looked up) 2 with K137E
chain 2: T7 sequence (looked up) 2
notes: as for B7

Experiments:
Details in all cases: both partners purified
Atg19 = biological target: T1, Atg19; assay: SEC; Atg19 and Atg5-Atg16 (1–46) premixed at 55 µM, concentrated to 580 µM, Superose 6 PC 3.2/30, 25 mM HEPES pH 7.5, 150 mM NaCl, 1 mM DTT; fractions on Coomassie gels
Atg12~Atg5 conjugate = biological target: T2, Atg12~Atg5 conjugate; assay: SEC; separately purified proteins mixed in a molar ratio 1:1 for 30 min at 4°C or on ice; the resulting complex purified on Superdex S200 16/60
Atg5 = biological target: T3, Atg5; assay: as above
Atg12~Atg5-Atg16 complex = biological target: T4, Atg12~Atg5-Atg16 complex; assay: pull-down; GST-fused bait 5 µM and GST-free prey 5 µM with glutathione Sepharose 4B, 1 hr at 4°C; washed with 25 mM HEPES pH 7.5, 150 mM NaCl, 1 mM DTT and 0.1% TritonX100; Western blot (Figures 1A, 1C, 2A, 2C)
Atg5-Atg16 (1–46) = biological target: B6; assay: pull-down; GST-fused bait 20 µM and GST-free prey 5 µM with glutathione Sepharose 4B, 1 hr at 4°C; washed with 25 mM HEPES pH 7.5, 150 mM NaCl, 1 mM DTT; anti-Atg5 Western blot (Figure 2E, Figure 3—figure supplement 1, Figure 4C)
Atg5-Atg16 complex = biological target: T5, Atg5-Atg16 complex; assay: as above
GFP-Atg8∆R117 = biological target: T6, GFP-Atg8∆R117; assay: microscopy-based competition assay on beads; beads coated with GST-Atg19(365–415) at 30 µM, Atg5-mCherry-Atg16 (1–46) 18 µM; then GFP-Atg8∆R117 18 µM (1x), then Atg8 400 µM (22x); 25 mM HEPES pH 7.5, 150 mM NaCl, 1 mM DTT (Figure 3E, F)
[1] = biological target: T7, Atg5-mCherry-Atg16 (1–46) complex; assay: microscopy-based protein-protein interaction assay on beads; glutathione beads coated with GST-fused proteins at 30 µM, Atg5-mCherry-Atg16 (1–46) 18 µM, equilibrium (Figure 3B, C)
GST-Atg19 [2] = biological target: T8, GST-Atg19; assay: pull-down; GST-fused bait 5 µM and GST-free prey 5 µM with glutathione Sepharose 4B, 1 hr at 4°C; washed with 25 mM HEPES pH 7.5, 150 mM NaCl, 1 mM DTT and 0.1% TritonX100; Western blot (Figures 1A, 1C, 2A, 2C)
GST-Atg19 [3] = biological target: T8, GST-Atg19; assay: pull-down; GST-fused bait 20 µM and GST-free prey 5 µM with glutathione Sepharose 4B, 1 hr at 4°C; washed with 25 mM HEPES pH 7.5, 150 mM NaCl, 1 mM DTT; anti-Atg5 Western blot (Figure 2E, Figure 3—figure supplement 1, Figure 4C)

Binder: B1
binding result (Atg19): binds

Binder: B2
binding result (Atg12~Atg5 conjugate): binds
binding result (Atg5): binds

Binder: B3
binding result (Atg5): binds

Binder: B4
binding result (Atg12~Atg5-Atg16 complex): binds

Binder: B5
binding result (Atg5-Atg16 (1–46)): binds
binding result (Atg5-Atg16 complex): binds
binding result (GFP-Atg8∆R117): binds
binding result [1]: binds

Binder: B6
binding result (GST-Atg19 [2]): binds

Binder: B7
binding result (GST-Atg19 [3]): binds

Binder: B8
binding result (Atg5-Atg16 (1–46)): binds
binding result [1]: binds

Binder: B9
binding result (GST-Atg19 [3]): binds
